The supplement of paper PMC7877785
± gives the uncertainty stated by the source.

Experiment: self-splicing fitness, log relative to wild type (ln ratio); higher = more splicing; Tetrahymena group I intron in knt gene, E. coli kanamycin selection, DiMSum; sequences stand for … in CUCUCU…GGAGGGAAAAGUUAUCAGGCAUGCACCUGGUAGCUAGUCUUUAAACCAAUAGAUUGCAUCGGUUUAAAAGGCAAGACCGUCAAAUUGCGGGAAAGGGGUCAACAGCCGUUCAGUACCAAGUCUCAGGGGAAACUUUGAGAUGGCCUUGCAAAGGGUAUGGUAAUAAGCUGACGGACAUGGUCCUAACCACGCAGCCAAGUCCUAAGUCAACAGAUCUUCUGUUGAUAUGGAUGCAGUUCACAGACUAAAUGUCGGUCGGGGAAGAUGUAUUCUUCUCAUAAGAUAUAGUCGGACCUCUCCUUAAUGGGAGCUAGCGGAUGAAGUGAUGCAACACUGGAGCCGCUGGGAACUAAUUUGUAUGCGAAAGUAUAUUGAUUAGUUUUGGAGUACUCGUGGUCG
In short: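 Fitness was computed with DiMSum as the error-weighted combination of replicate fold changes, kanamycin versus none, each normalised to wild type. The library randomised all eight intron nucleotides of the P1ex region, with the intron placed in the knt kanamycin-resistance gene on pET-22b(+) in E. coli BL21(DE3). Six replicate transformations were grown overnight at 37°C or 30°C on LB agar with or without 25 μg/mL kanamycin, plus 100 μg/mL carbenicillin, 50 μM IPTG and 0.2% rhamnose. Pooled colonies were amplicon-sequenced on an Illumina HiSeq 2500.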

| Sequence | self-splicing fitness (ln) (30 °C) | self-splicing fitness (ln) (37 °C) |
| --- | --- | --- |
| GUCUAGCAAUAUUACGACGG | -3.01 ± 0.29 | -2.45 ± 0.27 |
| GUCUAGCAAUAUUACGACUG | -2.39 ± 0.23 | -2.73 ± 0.31 |
| GUCUAGCAAUAUUACGAGGG | -3.1 ± 0.11 | -1.57 ± 0.09 |
| GUCUAGCAAUAUUACGAUCC | -0.754 ± 0.16 | 0.0678 ± 0.24 |
| GUCUAGCAAUAUUACGAUGC | 0.169 ± 0.14 | -0.841 ± 0.13 |
| GUCUAGCAAUAUUACGAUUC | -0.168 ± 0.094 | 0.284 ± 0.1 |
| GUCUAGCAAUAUUACGCAAG |  | -1.66 ± 0.38 |
| GUCUAGCAAUAUUACGCCAU | -2.11 ± 0.26 | -2.04 ± 0.18 |
| GUCUAGCAAUAUUACGCCCA | -0.688 ± 0.26 | -0.356 ± 0.26 |
| GUCUAGCAAUAUUACGCCCG | -0.678 ± 0.27 | -0.293 ± 0.34 |
| GUCUAGCAAUAUUACGCCGA | -1.65 ± 0.19 | -0.506 ± 0.15 |
| GUCUAGCAAUAUUACGCCGU | -0.884 ± 0.23 | -0.0862 ± 0.26 |
| GUCUAGCAAUAUUACGCGCA | -0.481 ± 0.098 | 0.157 ± 0.087 |
| GUCUAGCAAUAUUACGCGGA | -2.61 ± 0.33 | -2.07 ± 0.27 |
| GUCUAGCAAUAUUACGGAAU | -0.979 ± 0.11 | 0.135 ± 0.11 |
| GUCUAGCAAUAUUACGGACC | -3.95 ± 0.46 | -0.565 ± 0.24 |
| GUCUAGCAAUAUUACGGAGG | -3.98 ± 0.3 | -1.59 ± 0.18 |
| GUCUAGCAAUAUUACGGAGU | -0.693 ± 0.096 | 0.121 ± 0.093 |
| GUCUAGCAAUAUUACGGCGU | 0.142 ± 0.069 | 0.0882 ± 0.091 |

| Sequence | self-splicing fitness (ln) (30 °C) | self-splicing fitness (ln) (37 °C) |
| --- | --- | --- |
| GUCUAGCAAUAUUACGGGCC | -3.14 ± 0.36 |  |
| GUCUAGCAAUAUUACGUAGU | -0.529 ± 0.087 | 0.276 ± 0.092 |
| GUCUAGCAAUAUUACGUAUG | -2.94 ± 0.18 | -0.896 ± 0.13 |
| GUCUAGCAAUAUUACGUCUG | -2.49 ± 0.14 | -1.51 ± 0.13 |
| GUCUAGCAAUAUUACGUUAG | -2.42 ± 0.16 | -2.28 ± 0.21 |
| GUCUAGCAAUAUUACGUUCA | -0.225 ± 0.11 | 0.35 ± 0.12 |
| GUCUAGCAAUAUUACGUUCU | -0.494 ± 0.098 | -0.247 ± 0.11 |
| GUCUAGCAAUAUUACGUUGC | -2.55 ± 0.42 | -0.754 ± 0.41 |
| GUGAAGCAAUAUUACGAAAA | -1.44 ± 0.14 | -0.831 ± 0.18 |
| GUGAAGCAAUAUUACGACGU | 0.815 ± 0.1 | 0.675 ± 0.1 |
| GUGAAGCAAUAUUACGACUU | -0.643 ± 0.056 | -0.276 ± 0.084 |
| GUGAAGCAAUAUUACGCCGG | -1.96 ± 0.45 |  |
| GUGAAGCAAUAUUACGCCUA | -0.415 ± 0.11 | -0.226 ± 0.17 |
| GUGAAGCAAUAUUACGCGUC | -2.19 ± 0.19 | -0.692 ± 0.16 |
| GUGAAGCAAUAUUACGCUGA | -1.32 ± 0.092 | -1.09 ± 0.13 |
| GUGAAGCAAUAUUACGCUUA | -1.49 ± 0.087 | -0.459 ± 0.13 |
| GUGAAGCAAUAUUACGGAAA | -1.64 ± 0.11 | -0.16 ± 0.17 |
| GUGAAGCAAUAUUACGGAUG | -0.987 ± 0.07 | -0.586 ± 0.098 |
| GUGAAGCAAUAUUACGGCCA | -0.0192 ± 0.11 | 0.468 ± 0.15 |
